Experimental data: patent publication CN113999301A (JIANGSU XINTRUM PHARMACEUTICALS CO LTD, dated 2022)

Biological target: 新冠假病毒Delta突变株的S蛋白 (B.1.617.2(Delta)) (SARS-CoV-2, UniProt P0DTC2 14-1273)
Test: cell-based or functional assay

B1: 抗SARS-CoV-2(COVID-19)S蛋白RBD单克隆抗体B15-5-B3 (antibody, V domains shown)
VH: EVKFEESGGGLVQPGGSMKLSCAASGFTFSDAWMDWVRQSPEKGLEWVAEIRNKANNHATYYAESVKGRFTISRDDSKSSVYLQMNSLRAEDTGIYYCTPYDYAYPWFWGQGTLVTVSA
VL: EIVLTQSPTTMAASPGEKITITCSASSSISSHYLHWYQQKPGFSPKLLIYRSYSLASGFPGRFSGSGSGTSFSLSIGTMEAEDVATYYCQQGSSRITPFGGGTKLEIK
假病毒中和效应 EC50 (luciferase, HEK293-ACE2 cells): 0.27 µg/mL
